{"source": "FireProtDB (doi:10.1021/bi990893b)", "parents": {"B1": {"name": "Cytochrome b5, P00171 (parent)", "chain": "MAEESSKAVKYYTLEEIQKHNNSKSTWLILHYKVYDLTKFLEEHPGGEEVLREQAGGDATENFEDVGHSTDARELSKTFIIGELHPDDRSKITKPSESIITTIDSNPSWWTNWLIPAISALFVALIYHLYTSEN"}}, "variants_of": "B1", "details": "Bos taurus, pH 7, Thermal, Absorbance, Sodium phosphate 100 mM, structure 1CYO, whole UniProt chain shown; for ddG of mutation (higher = less stable): 67.2 °C", "data": [{"variant": "MAEESSKAVKYYTLEEIQKHNNSKSTWLILHYKVYDLTKFLEEHPGGEEVLREQAGGDATENFEDYGHSTDARELSKTFIIGELHPDDRSKITKPSESIITTIDSNPSWWTNWLIPAISALFVALIYHLYTSEN", "note": "[V66Y]", "values": [{"measurement": "ddG of mutation (higher = less stable)", "value": 1.29, "unit": "kcal/mol"}, {"measurement": "Tm", "value": 62.5, "unit": "°C"}, {"measurement": "change of melting temperature, mutant - wild type (higher = more stable)", "value": -4.7, "unit": "°C"}, {"measurement": "unfolding enthalpy (van 't Hoff)", "value": 91.3, "unit": "kcal/mol"}]}, {"variant": "MAEESSKAVKYYTLEEIQKHNNSKSTWLILHYKVYDLTKFLEEHPGGEEVLREQAGGDATENFEDKGHSTDARELSKTFIIGELHPDDRSKITKPSESIITTIDSNPSWWTNWLIPAISALFVALIYHLYTSEN", "note": "[V66K]", "values": [{"measurement": "ddG of mutation (higher = less stable)", "value": 2.34, "unit": "kcal/mol"}, {"measurement": "Tm", "value": 58.5, "unit": "°C"}, {"measurement": "change of melting temperature, mutant - wild type (higher = more stable)", "value": -8.7, "unit": "°C"}, {"measurement": "unfolding enthalpy (van 't Hoff)", "value": 87, "unit": "kcal/mol"}]}, {"variant": "MAEESSKAVKYYTLEEIQKHNNSKSTWLILHYKVYDLTKFLEEHPGGEEVLREQAGGDATENFEDHGHSTDARELSKTFIIGELHPDDRSKITKPSESIITTIDSNPSWWTNWLIPAISALFVALIYHLYTSEN", "note": "[V66H]", "values": [{"measurement": "ddG of mutation (higher = less stable)", "value": 1.63, "unit": "kcal/mol"}, {"measurement": "Tm", "value": 61.3, "unit": "°C"}, {"measurement": "change of melting temperature, mutant - wild type (higher = more stable)", "value": -5.9, "unit": "°C"}, {"measurement": "unfolding enthalpy (van 't Hoff)", "value": 88.2, "unit": "kcal/mol"}]}, {"variant": "MAEESSKAVKYYTLEEIQKHNNSKSTWLILHYKVYDLTKFLEEHPGGEEVLREQAGGDATENFEDEGHSTDARELSKTFIIGELHPDDRSKITKPSESIITTIDSNPSWWTNWLIPAISALFVALIYHLYTSEN", "note": "[V66E]", "values": [{"measurement": "ddG of mutation (higher = less stable)", "value": 1.1, "unit": "kcal/mol"}, {"measurement": "Tm", "value": 63.2, "unit": "°C"}, {"measurement": "change of melting temperature, mutant - wild type (higher = more stable)", "value": -4, "unit": "°C"}, {"measurement": "unfolding enthalpy (van 't Hoff)", "value": 93.2, "unit": "kcal/mol"}]}]}
